Measurements from patent US12068729.

Key:
[1] = molecular target: human activated Factor XII (FXIIa), Enzyme Research Laboratories Cat #1212a (human); test: SPR Biacore, mAb captured by anti-hFc, 25 C
[2] = molecular target: human Factor XII (FXII), Enzyme Research Laboratories Cat #1212 (human); test: SPR Biacore, mAb captured by anti-hFc, 25 C
[3] = molecular target: human activated Factor XII (FXIIa), Enzyme Research Laboratories Cat #1212a (human); test: SPR Biacore, mAb captured by anti-hFc, 37 C
[4] = molecular target: human Factor XII (FXII), Enzyme Research Laboratories Cat #1212 (human); test: SPR Biacore, mAb captured by anti-hFc, 37 C

Row | Substance | 100 nM Ag Bound (RU) [1] [RU] | Kd [1] [nM] | koff [1] [s⁻¹] | kon [1] [M⁻¹ s⁻¹] | t½ [1] [min] | 100 nM Ag Bound (RU) [2] [RU] | 100 nM Ag Bound (RU) [3] [RU] | Kd [3] [nM] | koff [3] [s⁻¹] | kon [3] [M⁻¹ s⁻¹] | t½ [3] [min] | 100 nM Ag Bound (RU) [4] [RU] | Kd [2] [nM] | koff [2] [s⁻¹] | kon [2] [M⁻¹ s⁻¹] | t½ [2] [min] | Kd [4] [nM] | koff [4] [s⁻¹] | kon [4] [M⁻¹ s⁻¹] | t½ [4] [min]
1 | Comparator 1, a monoclonal antibody against human FXII/FXIIa having VH/VL sequences of antibody 3F7 according to U.S. Pat. No. 9,518,127 (CSL Behring GmbH) | 297 | 2.54 | 0.000996 | 392000 | 11.6 | 9.5 | 312 | 8.25 | 0.00515 | 624000 | 2 | 9.9 | – | – | – | – | – | – | – | –
2 | Comparator 2, a human monoclonal antibody against human FXII having VH/VL sequences of antibody 15H8 according to U.S. Pat. No. 9,574,013 (Vanderbilt Univ./Aronora) | 197 | 2.93 | 0.00451 | 1.54e+06 | 2.6 | 86.1 | 187 | 2.76 | 0.02 | 7.25e+06 | 1 | 83.8 | 37.3 | 0.00247 | 66100 | 4.7 | 45.3 | 0.0542 | 1.2e+06 | 0
3 | Isotype control (antibody) | 0.1 | – | – | – | – | 10 | -2.7 | – | – | – | – | 10.3 | – | – | – | – | – | – | – | –
